Literature values as cited in publication PMC12564508.

Biological target: NS4B (Dengue virus) (UniProt P27909)

NS4A (from UniProt P27909)
Kd: 0.05 µM
